{
  "source": "paper PMC7610980",
  "biological_target": "bat RaTG13 spike (S) glycoprotein ectodomain (bat coronavirus RaTG13)",
  "test": "BLI",
  "data": [
    {"substance": "human ACE2 ectodomain (residues 19-615) (from UniProt Q9BYF1-1 19-615) (receptor)", "values": [
      {"measurement": "Kd", "result": "> 40", "unit": "µM"}
    ]}
  ]
}
